Laboratory results published in patent publication US7588931B2, “High arachidonic acid producing strains of Yarrowia lipolytica” (E. I. du Pont de Nemours and Company, priority 2004, dated 2009).
Entries after “also recorded” stand apart in the source; their conditions may differ.

Key:
Assay type in all cases: cell-based, Yarrowia lipolytica
[1] = test system: β-glucuronidase (GUS) reporter; test: Comparative analysis of promoters by histochemical analysis of GUS expression; conditions: ATCC #76982 strains, MM, FIG. 5B
Protocol: Comparative studies investigating the promoter activities of the TEF, GPD, GPDIN, GPM, GPAT, FBA, FBAIN and YAT1 promoters were performed, by synthesizing constructs comprising each promoter and the E. coli gene encoding β-glucuronidase (GUS) as a reporter gene (Jefferson, R. A. Nature. 14(342):837-838 (1989)). Then, GUS activity was measured by histochemical and fluorometric assays (Jefferson, R. A. Plant Mol. Biol. Reporter 5:387-405 (1987)) and/or by using Real Time PCR for mRNA quantitation.
Yarrowia lipolytica ATCC #76982 strains containing plasmids pY5-30, pYZGDG, pYZGMG, pDMW212 and pDMW214 were grown from single colonies in 3 mL MM at 30° C. to an OD600˜1.0. Then, 100 μl of cells were collected by centrifugation, resuspended in 100 μl of histochemical staining buffer, and incubated at 30° C. Staining buffer was prepared by dissolving 5 mg of 5-bromo-4-chloro-3-indolyl glucuronide (X-Gluc) in 50 μl dimethyl formamide, followed by the addition of 5 mL 50 mM NaPO4, pH 7.0.
In a separate experiment, Y. lipolytica Y2034 strains containing plasmids pY5-30, pYGPAT-GUS, pYAT-GUS and pDMW214 were grown from single colonies in 5 mL SD media at 30° C. for 24 hrs to an OD600˜8.0. Then, 1 mL of cells were collected by centrifugation. The remaining cultures were centrifuged and washed 2× with HGM, resuspended in 5 mL each of HGM and allowed to grow at 30° C. further. After 24 and 120 hrs, ˜0.25 mL of each culture were centrifuged to collect the cells. Cell samples were resuspended individually in 100 μl of histochemical staining buffer (supra). Zymolase 20T (5 μl of 1 mg/mL; ICN Biomedicals, Costa Mesa, Calif.) was added to each, and the mixture incubated at 30° C. […]

[2] = test system: β-glucuronidase (GUS) reporter; test: Relative promoter activity rank from comparative GUS reporter studies (histochemical, fluorometric and/or Real Time PCR); parameters: key: a ‘1’ corresponds to the promoter with lowest activity; a ‘7’ corresponds to the promoter with highest activity; conditions: relative to other promoters
Method in brief: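 GUS activity from each promoter construct was measured by histochemical and/or fluorometric assays and/or Real Time PCR. Promoters were ranked relative to one another, from 1 (lowest activity) to 7 (highest activity).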

[3] = test system: β-glucuronidase (GUS) reporter; test: Comparative analysis of promoters by fluorometric assay of GUS expression; conditions: for GUS activity relative to the GPD promoter: ATCC #76982 strains, FIG. 6A
Protocol: GUS activity was also assayed by fluorometric determination of the production of 4-methylumbelliferone (4-MU) from the corresponding substrate β-glucuronide (Jefferson, R. A. Plant Mol. Biol. Reporter 5:387-405 (1987)).
Yarrowia lipolytica ATCC #76982 strains containing plasmids pY5-30, PYZGDG, PYZGMG, pDMW212 and pDMW214 were grown from single colonies in 3 mL MM (as described above) at 30° C. to an OD600˜1.0. Then, the 3 mL cultures were each added to a 500 mL flask containing 50 mL MM and grown in a shaking incubator at 30° C. for about 24 hrs. The cells were collected by centrifugation, resuspended in Promega Cell Lysis Buffer and lysed using the BIO 101 Biopulverizer system (Vista, Calif.). After centrifugation, the supernatants were removed and kept on ice.
Similarly, Y. lipolytica strain Y2034 containing plasmids pY5-30, pYAT-GUS, pYGPAT-GUS and pDMW214 constructs, respectively, were grown from single colonies in 10 mL SD medium at 30° C. for 48 hrs to an OD600˜5.0. Two mL of each culture was collected for GUS activity assays, as described below, while 5 mL of each culture was switched into HGM.
Specifically, cells from the 5 mL aliquot were collected by centrifugation, washed once with 5 mL of HGM and resuspended in HGM. The cultures in HGM were then grown in a shaking incubator at 30° C. for 24 hrs. Two mL of each HGM culture were collected for the GUS activity assay, while the remaining culture was allowed to grow for an additional 96 hrs before collecting an additional 2 mL of each culture for the assay.
Each 2 mL culture sample in SD medium was resuspended in 1 mL of 0.5× cell culture lysis reagent (Promega). Resuspended cells were mixed with 0.6 mL of glass beads (0.5 mm diameter) in a 2.0 mL screw cap tube with a rubber O-ring. The cells were then homogenized in a Biospec mini beadbeater (Bartlesville, Okla.) at the highest setting for 90 sec. The homogenization mixtures were centrifuged for 2 min at 14,000 rpm in an Eppendof centrifuge to remove cell debris and beads. The supernatant was used for GUS assay and protein determination.
For each fluorometric assay, 100 μl of extract was added to […] of GUS assay buffer (2 mM 4-methylumbelliferyl-β-D-glucuronide (“MUG”) in extraction buffer) or 200 μl of extract was added to 800 μl of GUS assay buffer. The mixtures were placed at 37° C. Aliquots of 100 μl were taken at 0, 30 and 60 min time points and added to 900 μl of stop buffer (1 M Na2CO3). Each time point was read using a CytoFluor Series 4000 Fluorescence Multi-Well Plate Reader (PerSeptive Biosystems, Framingham, Mass.) set to an excitation wavelength of 360 nm and an emission wavelength of 455 nm. Total protein concentration of each sample was determined using 10 μl of extract and 200 μl of BioRad Bradford reagent or 20 μl of extract and 980 μl of BioRad Bradford reagent (Bradford, M. M. Anal. Biochem. 72:248-254 (1976)). GUS activity was expressed as nmoles of 4-MU per minute per mg of protein.

Row | Molecule | promoter activity by histochemical staining [1] | Activity “Rank” [2] | GUS activity relative to the GPD promoter [3] | GUS activity ([3]; strain Y2034, 24 hr, HGM) | GUS activity ([3]; strain Y2034, 48 hr, SD) | GUS activity ([3]; strain Y2034, 120 hr HGM) | reduction of promoter activity ([3]; switched from SD medium into HGM for 24 hrs) [%]
1 | FBA: Y. lipolytica fructose-bisphosphate aldolase promoter, SEQ ID NO:161 (nucleic acid, listed as Yarrowia lipolytica, misc_feature: Promoter FBA) DNA: TAAACAGTGTACGCAGTACTATAGAGGAACAATTGCCCCGGAGAAGACGGCCAGGCCGCCTAGATGACAAATTCAACAACTCACAGCTGACTTTCTGCCATTGCCACTAGGGGGGGCCTTTTTATATGGCCAAGCCAAGCTCTCCACGTCGGTTGGGCTGCACCCAACAATAAATGGGTAGGGTTGCACCAACAAAGGGATGGGATGGGGGGTAGAAGATACGAGGATAACGGGGCTCAATGGCACAAATAAGAACGAATACTGCCATTAAGACTCGTGATCCAGCGACTGACACCATTGCATCATCTAAGGGCCTCAAAACTACCTCGGAACTGCTGCGCTGATCTGGACACCACAGAGGTTCCGAGCACTTTAGGTTGCACCAAATGTCCCACCAGGTGCAGGCAGAAAACGCTGGAACAGCGTGTACAGTTTGTCTTAACAAAAAGTGAGGGCGCTGAGGTCGAGCAGGGTGGTGTGACTTGTTATAGCCTTTAGAGCTGCGAAAGCGCGTATGGATTTGGCTCATCAGGCCAGATTGAGGGTCTGTGGACACATGTCATGTTAGTGTACTTCAATCGCCCCCTGGATATAGCCCCGACAATAGGCCGTGGCCTCATTTTTTTGCCTTCCGCACATTTCCATTGCTCGGTACCCACACCTTGCTTCTCCTGCACTTGCCAACCTTAATACTGGTTTACATTGACCAACATCTTACAAGCGGGGGGCTTGTCTAGGGTATATATAAACAGTGGCTCTCCCAATCGGTTGCCAGTCTCTTTTTTCCTTTCTTTCCCCACAGATTCGAAATCTAAACTACACATCACACAATGCCTGTTACTGACGTCCTTAAGCGAAAGTCCGGTGTCATCGTCGGCGACGATGTCCGAGCCGTGAGTATCCACGACAAGATCAGTGTCGAGACGACGCGTTTTGTGTAATGACACAATCCGAAAGTCGCTAGCAACACACACTCTCTACACAAACTAACCCAGCTCTCC | active; also recorded: much stronger than all the other promoters | 4 | 2.2 times | – | – | – | –
2 | FBAIN: fructose-bisphosphate aldolase + intron promoter, SEQ ID NO:162 (nucleic acid, listed as Yarrowia lipolytica, misc_feature: Promoter FBAIN) DNA: AAATTGCCCCGGAGAAGACGGCCAGGCCGCCTAGATGACAAATTCAACAACTCACAGCTGACTTTCTGCCATTGCCACTAGGGGGGGGCCTTTTTATATGGCCAAGCCAAGCTCTCCACGTCGGTTGGGCTGCACCCAACAATAAATGGGTAGGGTTGCACCAACAAAGGGATGGGATGGGGGGTAGAAGATACGAGGATAACGGGGCTCAATGGCACAAATAAGAACGAATACTGCCATTAAGACTCGTGATCCAGCGACTGACACCATTGCATCATCTAAGGGCCTCAAAACTACCTCGGAACTGCTGCGCTGATCTGGACACCACAGAGGTTCCGAGCACTTTAGGTTGCACCAAATGTCCCACCAGGTGCAGGCAGAAAACGCTGGAACAGCGTGTACAGTTTGTCTTAACAAAAAGTGAGGGCGCTGAGGTCGAGCAGGGTGGTGTGACTTGTTATAGCCTTTAGAGCTGCGAAAGCGCGTATGGATTTGGCTCATCAGGCCAGATTGAGGGTCTGTGGACACATGTCATGTTAGTGTACTTCAATCGCCCCCTGGATATAGCCCCGACAATAGGCCGTGGCCTCATTTTTTTGCCTTCCGCACATTTCCATTGCTCGGTACCCACACCTTGCTTCTCCTGCACTTGCCAACCTTAATACTGGTTTACATTGACCAACATCTTACAAGCGGGGGGCTTGTCTAGGGTATATATAAACAGTGGCTCTCCCAATCGGTTGCCAGTCTCTTTTTTCCTTTCTTTCCCCACAGATTCGAAATCTAAACTACACATCACACAATGCCTGTTACTGACGTCCTTAAGCGAAAGTCCGGTGTCATCGTCGGCGACGATGTCCGAGCCGTGAGTATCCACGACAAGATCAGTGTCGAGACGACGCGTTTTGTGTAATGACACAATCCGAAAGTCGCTAGCAACACACACTCTCTACACAAACTAACCCAGCTCTCC | active; also recorded: strongest promoter activity | 7 | about 6.6 times | 30.694 nmoles of 4-MU per minute per mg of protein | 43.333 nmoles of 4-MU per minute per mg of protein | 17.200 nmoles of 4-MU per minute per mg of protein | 30
